This experiment deals with mouse GDF-8 pro-domain without tag, lacking the signal peptide, released from WT-GDF-8-F in QM-7 cells (mouse) (UniProt O08689). The experiment is described as follows: cell-based or functional assay.
Chain of UniProt O08689 (O08689 20-267 limits assumed): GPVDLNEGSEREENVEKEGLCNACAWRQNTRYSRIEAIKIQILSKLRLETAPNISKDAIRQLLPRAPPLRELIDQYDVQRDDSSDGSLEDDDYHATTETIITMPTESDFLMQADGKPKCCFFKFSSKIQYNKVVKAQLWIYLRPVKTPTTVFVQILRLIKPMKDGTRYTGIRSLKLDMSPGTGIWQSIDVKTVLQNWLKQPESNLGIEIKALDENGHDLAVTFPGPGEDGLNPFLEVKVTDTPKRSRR

As for m-calpain (enzyme), the luciferase activity of affinity-purified GDF-8 complexes after 1U/ml m-calpain for 2 hours at 37° C, against the untreated control stood at 2.5 fold.
